The values below come from ChEMBL document CHEMBL1155806, “Inorganic polyhedral metallacarborane inhibitors of HIV protease: a new approach to overcoming antiviral resistance” (J Med Chem, 2008).

Data set [1] deals with Cc1c(O)cccc1C(=O)N[C@@H](CSc1ccccc1)[C@H](O)CN1C[C@H]2CCCC[C@H]2C[C@H]1C(=O)NC(C)(C)C. To be noted: Human immunodeficiency virus 1.
Data set [2] has the same test system. To be noted: Human immunodeficiency virus 1. The source holds these as a separate data set.
Data set [3] has the same test system. To be noted: Human immunodeficiency virus 1. This is another data set of the same source.
For data set [4] the test system is unchanged. To be noted: Human immunodeficiency virus 1. The source holds these as a separate data set.
Data set [5] shares this test system. To be noted: Human immunodeficiency virus 1. The source holds these as a separate data set.
The test system is the same in data set [6]. To be noted: Human immunodeficiency virus 1. The source holds these as a separate data set.
For data set [7] the test system is unchanged. To be noted: Human immunodeficiency virus 1. The source holds these as a separate data set.
Data set [8] shares this test system. To be noted: Human immunodeficiency virus 1; BH10.

As to “Human immunodeficiency virus type 1 protease (Human immunodeficiency virus 1), Q72874 A71V,V82T,I84V”, in data set [1], the Km is 36 µM and the kcat came out at 11 s⁻¹.
As to “Human immunodeficiency virus type 1 protease (Human immunodeficiency virus 1), Q72874 D30N,N88D”, in data set [2], the Km is 18 µM and the kcat worked out at 24 s⁻¹.
Regarding “Human immunodeficiency virus type 1 protease (Human immunodeficiency virus 1), Q72874 L10F,L19I,K20R,L33F,E35D,M36I,R41K,F53L,I54V,L63P,H69K,A71V,T74P,I84V,L89M,L90M,I93L”, in data set [3], the Km came out at 13 µM and the kcat was 10 s⁻¹.
For “Human immunodeficiency virus type 1 protease (Human immunodeficiency virus 1), Q72874 L10I,I15V,E35D,N37S,R41K,I62V,L63P,A71V,G73S,L90M”, in data set [4], the Km came out at 8.3 µM and the kcat was determined as 12 s⁻¹.
Take “Human immunodeficiency virus type 1 protease (Human immunodeficiency virus 1), Q72874 L10I,L24I,L33F,M46L,I54V,L63P,A71V,V82A,I84V”: in data set [5], the Km worked out at 14 µM and the kcat amounted to 6.4 s⁻¹.
As for “Human immunodeficiency virus type 1 protease (Human immunodeficiency virus 1), Q72874 M46I,A71V,V82T,I84V”, in data set [6], the Km worked out at 48 µM and the kcat was 14 s⁻¹.
Consider “Human immunodeficiency virus type 1 protease (Human immunodeficiency virus 1), Q72874 V32I,I47A”, for which, in data set [7], the Km came to 35 µM and the kcat is 7.5 s⁻¹.
In the case of “Protease (Human immunodeficiency virus 1), Q9YQ12”, in data set [8], the Km stood at 15 µM and the kcat was 30 s⁻¹.
